± gives the uncertainty stated by the source.

The data set is described as follows: self-splicing fitness, log relative to wild type (ln ratio); higher = more splicing; Tetrahymena group I intron in knt gene, E. coli kanamycin selection, DiMSum; sequences stand for … in CUCUCU…GGAGGGAAAAGUUAUCAGGCAUGCACCUGGUAGCUAGUCUUUAAACCAAUAGAUUGCAUCGGUUUAAAAGGCAAGACCGUCAAAUUGCGGGAAAGGGGUCAACAGCCGUUCAGUACCAAGUCUCAGGGGAAACUUUGAGAUGGCCUUGCAAAGGGUAUGGUAAUAAGCUGACGGACAUGGUCCUAACCACGCAGCCAAGUCCUAAGUCAACAGAUCUUCUGUUGAUAUGGAUGCAGUUCACAGACUAAAUGUCGGUCGGGGAAGAUGUAUUCUUCUCAUAAGAUAUAGUCGGACCUCUCCUUAAUGGGAGCUAGCGGAUGAAGUGAUGCAACACUGGAGCCGCUGGGAACUAAUUUGUAUGCGAAAGUAUAUUGAUUAGUUUUGGAGUACUCGUGGUCG
In short, it runs like this:
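Library with all eight P1ex-region intron nucleotides randomised, intron inside the knt kanamycin-resistance gene on pET-22b(+), in E. coli BL21(DE3). Cells grew overnight at 37°C or 30°C on LB agar with or without 25 μg/mL kanamycin (plus 100 μg/mL carbenicillin, 50 μM IPTG, 0.2% rhamnose), in six replicate transformations. Pooled colonies were amplicon-sequenced on Illumina HiSeq 2500. DiMSum fitness is the error-weighted combination of wild-type-normalised replicate fold changes, kanamycin versus none.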

For the sequence UUUUAGCAAUAUUACGAAUG, the “self-splicing fitness (ln)” value was -1.04 ± 0.077 (30 °C) and -0.0853 ± 0.096 (37 °C).
For CAAAAGCAAUAUUACGAAUA the same measures were -2.77 ± 0.16 and -1.5 ± 0.15.
For AGCUAGCAAUAUUACGCACA the same measures were -1.51 ± 0.21 and -0.817 ± 0.2.
For UGAUAGCAAUAUUACGUAAU the same measures were -4.31 ± 0.46 and -1.99 ± 0.21.
As for GCACAGCAAUAUUACGUCGA, the “self-splicing fitness (ln)” value by setting is: (30 °C) -0.827 ± 0.05; (37 °C) -0.258 ± 0.062.
For GCAGAGCAAUAUUACGGCGC the same measures were -2.3 ± 0.23 and -1.28 ± 0.41.
For GCAAAGCAAUAUUACGAACU the same measures were -0.569 ± 0.094 and -0.26 ± 0.13.
With UAACAGCAAUAUUACGAUAC, the “self-splicing fitness (ln)” value (30 °C) was -2.65 ± 0.39 and the “self-splicing fitness (ln)” value (37 °C) was -2.7 ± 0.48.
For UGCAAGCAAUAUUACGCUUA the same measures were -1.2 ± 0.092 and -0.639 ± 0.092.
For UAUGAGCAAUAUUACGACUA the same measures were -0.118 ± 0.11 and 0.0355 ± 0.12.
As to GUGCAGCAAUAUUACGCACC, for the setting “37 °C”, the “self-splicing fitness (ln)” value is -1.79 ± 0.35.
As for CAGUAGCAAUAUUACGGCGU, the “self-splicing fitness (ln)” value (30 °C) is -2.25 ± 0.12 and the “self-splicing fitness (ln)” value (37 °C) is -0.753 ± 0.14.
For the sequence AGCUAGCAAUAUUACGGAUG, the “self-splicing fitness (ln)” value was -2.3 ± 0.082 (30 °C) and -0.891 ± 0.095 (37 °C).
For GAUUAGCAAUAUUACGAACG the same measures were -1.09 ± 0.12 and 0.232 ± 0.13.
As for AUCGAGCAAUAUUACGACAC, the “self-splicing fitness (ln)” value runs as follows: (30 °C) -2.4 ± 0.29; (37 °C) -0.469 ± 0.22.
Regarding GGUUAGCAAUAUUACGACCA, the “self-splicing fitness (ln)” value reads like this: (30 °C) -1.69 ± 0.32; (37 °C) -0.631 ± 0.3.
Taken in the same sequence, the figures for UACCAGCAAUAUUACGUAAC were -2.64 ± 0.13 and -2.18 ± 0.2.
As to CUGAAGCAAUAUUACGGGUA, the “self-splicing fitness (ln)” value was -3.21 ± 0.15 (30 °C) and -3.96 ± 0.42 (37 °C).
In the case of CACCAGCAAUAUUACGAUAC, the “self-splicing fitness (ln)” value (30 °C) is -3.58 ± 0.23 and the “self-splicing fitness (ln)” value (37 °C) was -1.94 ± 0.19.
For UGAGAGCAAUAUUACGGUGA the same measures were -2.54 ± 0.36 and -2.73 ± 0.44.
Taken in the same sequence, the figures for GCUCAGCAAUAUUACGUUGA were -3.15 ± 0.18 and -2.42 ± 0.2.
Taken in the same sequence, the figures for UCCUAGCAAUAUUACGCUAU were -2.89 ± 0.21 and -2.43 ± 0.27.
On to AUGUAGCAAUAUUACGCCAU, for which the “self-splicing fitness (ln)” value was -2.41 ± 0.19 (30 °C) and -2.18 ± 0.24 (37 °C).
GCUGAGCAAUAUUACGAUGU: the “self-splicing fitness (ln)” value (30 °C) was -2.49 ± 0.1 and the “self-splicing fitness (ln)” value (37 °C) is -0.739 ± 0.12.
Taken in the same sequence, the figures for GAGUAGCAAUAUUACGCUCA were -0.591 ± 0.15 and -0.761 ± 0.15.
For the sequence AUAUAGCAAUAUUACGUAAU, the “self-splicing fitness (ln)” value was -1.02 ± 0.073 (30 °C) and -0.751 ± 0.12 (37 °C).
Taken in the same sequence, the figures for AAGGAGCAAUAUUACGUGGA were -2.36 ± 0.2 and -1.75 ± 0.2.
Taken in the same sequence, the figures for CACGAGCAAUAUUACGGGGU were -4.09 ± 0.23 and -2.67 ± 0.16.
Taken in the same sequence, the figures for AAGGAGCAAUAUUACGUCAU were -3.84 ± 0.2 and -2.94 ± 0.24.
For CAACAGCAAUAUUACGCAAG, the “self-splicing fitness (ln)” value (30 °C) was -1.48 ± 0.07 and the “self-splicing fitness (ln)” value (37 °C) is -0.352 ± 0.085.
For CUGGAGCAAUAUUACGAAAA the same measures were -2.86 ± 0.25 and -1.6 ± 0.22.
Taken in the same sequence, the figures for AGGCAGCAAUAUUACGUAGU were -3.18 ± 0.12 and -1.75 ± 0.11.
Taken in the same sequence, the figures for CUGCAGCAAUAUUACGGAGG were -2.5 ± 0.13 and -2.03 ± 0.21.
With ACGCAGCAAUAUUACGCAUG, the “self-splicing fitness (ln)” value by setting is: (30 °C) -3.56 ± 0.14; (37 °C) -2.57 ± 0.21.
For CCGCAGCAAUAUUACGUUUC, the “self-splicing fitness (ln)” value was -3.08 ± 0.31 (30 °C) and -2.93 ± 0.29 (37 °C).
Taken in the same sequence, the figures for UCAUAGCAAUAUUACGACUG were -1.04 ± 0.1 and -0.379 ± 0.14.
Taken in the same sequence, the figures for CGCCAGCAAUAUUACGUUCU were -3.88 ± 0.26 and -1.89 ± 0.17.
Take UGUUAGCAAUAUUACGCAAG: the “self-splicing fitness (ln)” value (30 °C) is -3.38 ± 0.37 and the “self-splicing fitness (ln)” value (37 °C) is -2.13 ± 0.4.
Taken in the same sequence, the figures for AGGCAGCAAUAUUACGAGUU were -1.69 ± 0.11 and -0.885 ± 0.1.
With CCGGAGCAAUAUUACGUUAG, the “self-splicing fitness (ln)” value (30 °C) was -1.47 ± 0.078 and the “self-splicing fitness (ln)” value (37 °C) was -0.769 ± 0.11.
For CCGUAGCAAUAUUACGGGGU the same measures were -3.96 ± 0.24 and -1.71 ± 0.2.
Taken in the same sequence, the figures for UUAAAGCAAUAUUACGCCCC were -0.451 ± 0.27 and 0.901 ± 0.38.
For ACACAGCAAUAUUACGUUAA, the “self-splicing fitness (ln)” value by setting is: (30 °C) -2.79 ± 0.13; (37 °C) -2.12 ± 0.12.
Taken in the same sequence, the figures for GGUAAGCAAUAUUACGCGCA were -0.159 ± 0.074 and -0.401 ± 0.085.
For CAUGAGCAAUAUUACGCUCG the same measures were -2.72 ± 0.17 and -2.68 ± 0.4.
GAGCAGCAAUAUUACGGGUU: the “self-splicing fitness (ln)” value was -2.44 ± 0.14 (30 °C) and -2.02 ± 0.16 (37 °C).
For GUAGAGCAAUAUUACGUCAU the same measures were -1.65 ± 0.1 and -1.36 ± 0.11.
Taken in the same sequence, the figures for UCUAAGCAAUAUUACGGUAG were -2.09 ± 0.11 and -0.881 ± 0.11.
For UUUGAGCAAUAUUACGGCGU, the “self-splicing fitness (ln)” value is -3.7 ± 0.26 (30 °C) and -1.9 ± 0.2 (37 °C).
On to UCGAAGCAAUAUUACGGAGG, for which the “self-splicing fitness (ln)” value is, setting by setting: (30 °C) -2.79 ± 0.32; (37 °C) -1.82 ± 0.41.
CCAAAGCAAUAUUACGUCAC: the “self-splicing fitness (ln)” value (30 °C) was -4.61 ± 0.25 and the “self-splicing fitness (ln)” value (37 °C) was -2.14 ± 0.19.
For the sequence UCACAGCAAUAUUACGGUGC, the “self-splicing fitness (ln)” value was -3.04 ± 0.18 (30 °C) and -1.47 ± 0.14 (37 °C).
Take CCUCAGCAAUAUUACGGCUA: the “self-splicing fitness (ln)” value (30 °C) is -3.62 ± 0.4 and the “self-splicing fitness (ln)” value (37 °C) is -1.72 ± 0.25.
Taken in the same sequence, the figures for GCCUAGCAAUAUUACGAUGG were -3.13 ± 0.21 and -2.05 ± 0.21.
Taken in the same sequence, the figures for AAACAGCAAUAUUACGGGGA were -2.79 ± 0.1 and -1.63 ± 0.081.
Taken in the same sequence, the figures for CACUAGCAAUAUUACGAUGC were -3.76 ± 0.18 and -3.05 ± 0.19.
With GGAUAGCAAUAUUACGGGGA, the “self-splicing fitness (ln)” value runs as follows: (30 °C) -3.41 ± 0.29; (37 °C) -3.52 ± 0.42.
For UCUAAGCAAUAUUACGAACG the same measures were -1.64 ± 0.094 and -1.28 ± 0.11.
For GGAUAGCAAUAUUACGCCAA the same measures were -2.37 ± 0.41 and -1.01 ± 0.25.
Taken in the same sequence, the figures for AAAAAGCAAUAUUACGACGU were 0.102 ± 0.054 and 0.768 ± 0.067.
Turning to CCACAGCAAUAUUACGCCAU, the “self-splicing fitness (ln)” value runs as follows: (30 °C) -3.59 ± 0.2; (37 °C) -1.36 ± 0.21.
For AUCCAGCAAUAUUACGCUUC the same measures were -3.58 ± 0.16 and -2.15 ± 0.15.
Taken in the same sequence, the figures for GCUUAGCAAUAUUACGUGGC were -3.12 ± 0.22 and -1.44 ± 0.4.
For the sequence GAAGAGCAAUAUUACGUGGG, the “self-splicing fitness (ln)” value is -3.22 ± 0.16 (30 °C) and -3.05 ± 0.2 (37 °C).
As for UCGUAGCAAUAUUACGGUAC, the “self-splicing fitness (ln)” value reads like this: (30 °C) -4.6 ± 0.46; (37 °C) -3.01 ± 0.34.
Taken in the same sequence, the figures for CGCUAGCAAUAUUACGUAGG were -1.4 ± 0.058 and -0.925 ± 0.081.
For the sequence CGACAGCAAUAUUACGGCGU, the “self-splicing fitness (ln)” value is -3.22 ± 0.088 (30 °C) and -1.59 ± 0.074 (37 °C).
With CCCAAGCAAUAUUACGCCCC, the “self-splicing fitness (ln)” value (37 °C) was -2.52 ± 0.48.
Take CCAGAGCAAUAUUACGGUUU: the “self-splicing fitness (ln)” value reads like this: (30 °C) -4.44 ± 0.39; (37 °C) -3.07 ± 0.32.
Taken in the same sequence, the figures for CUCAAGCAAUAUUACGAAGC were -3.4 ± 0.28 and -2.56 ± 0.35.
For UGCAAGCAAUAUUACGGUCA, the “self-splicing fitness (ln)” value (30 °C) worked out at 0.0812 ± 0.064 and the “self-splicing fitness (ln)” value (37 °C) was -0.169 ± 0.065.
Taken in the same sequence, the figures for AUACAGCAAUAUUACGGUGC were -3.65 ± 0.19 and -1.74 ± 0.16.
For CCAUAGCAAUAUUACGAAAC the same measures were -4.09 ± 0.35 and -2 ± 0.29.
For GCCAAGCAAUAUUACGUUCU the same measures were -2.45 ± 0.081 and -1.53 ± 0.088.
Consider GUCUAGCAAUAUUACGUGCC, for which the “self-splicing fitness (ln)” value is, setting by setting: (30 °C) -1.54 ± 0.24; (37 °C) -0.468 ± 0.28.

For the origin of these results see the supplement of paper PMC7877785.
